Data: patent publication US20100130424A1 (Janssen / Centocor, published 2010)
No end group written: not given here.

T1: human CRH receptor type 2 (human, UniProt Q13324 1-411)
T1 sequence (looked up): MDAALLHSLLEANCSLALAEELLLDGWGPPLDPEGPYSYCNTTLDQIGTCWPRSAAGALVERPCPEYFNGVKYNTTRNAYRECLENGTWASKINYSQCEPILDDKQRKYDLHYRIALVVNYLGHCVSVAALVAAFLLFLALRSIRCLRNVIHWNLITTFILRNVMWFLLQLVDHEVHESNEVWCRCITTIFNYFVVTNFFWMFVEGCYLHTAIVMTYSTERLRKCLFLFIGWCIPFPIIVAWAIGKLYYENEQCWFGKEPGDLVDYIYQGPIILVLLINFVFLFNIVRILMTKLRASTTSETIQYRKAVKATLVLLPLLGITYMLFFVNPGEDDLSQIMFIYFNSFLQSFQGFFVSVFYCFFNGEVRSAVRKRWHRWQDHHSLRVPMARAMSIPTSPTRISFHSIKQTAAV


Target: T1, human CRH receptor type 2
Assay: cell-based or functional assay

| Binder | Log DR against h-SCP, cAMP [log10 ratio] | pA50, cAMP |
| --- | --- | --- |
| TKFTLSLDVPTNIMNLLFNIAKAKNLRAQACANAHLMAQI-NH2 [Cys-variant CRHR2 peptide agonist, SEQ ID NO: 32] | 0.11 | 9.41 -log M |
| TKFTLSLDVPTCIMNLLFNIAKAKNLRAQAAANAHLMAQI-NH2 [Cys-variant CRHR2 peptide agonist, SEQ ID NO: 13] | -0.01 | 9.59 -log M |
| TKFTLSLDVPTNIMNLLFNCAKAKNLRAQAAANAHLMAQI-NH2 [Cys-variant CRHR2 peptide agonist, SEQ ID NO: 21] | 0.77 | 8.75 -log M |
| TKFTLSLDVPTNIMNLLFCIAKAKNLRAQAAANAHLMAQI-NH2 [Cys-variant CRHR2 peptide agonist, SEQ ID NO: 20] | 0.52 | 9 -log M |
| TKFTLSLDVPTNIMNLLFNIAKAKNLRAQAAACAHLMAQI-NH2 [Cys-variant CRHR2 peptide agonist, SEQ ID NO: 34] | > 3.19 | ~6.32 -log M |
| TKFTLSLDVPTNIMNLLFNIACAKNLRAQAAANAHLMAQI-NH2 [Cys-variant CRHR2 peptide agonist, SEQ ID NO: 23] | 1.13 | 8.55 -log M |
| TKFTLSLDVPTNIMNLCFNIAKAKNLRAQAAANAHLMAQI-NH2 [Cys-variant CRHR2 peptide agonist, SEQ ID NO: 18] | 1.11 | 8.41 -log M |
| TKFTLSLDVPTNIMNLLFNIAKAKCLRAQAAANAHLMAQI-NH2 [Cys-variant CRHR2 peptide agonist, SEQ ID NO: 26] | 0.08 | 9.44 -log M |
| TKFTLSLDVPTNICNLLFNIAKAKNLRAQAAANAHLMAQI-NH2 [Cys-variant CRHR2 peptide agonist, SEQ ID NO: 15] | 0.9 | 8.68 -log M |
| TKFTLSLDVPTNIMNLLFNICKAKNLRAQAAANAHLMAQI-NH2 [Cys-variant CRHR2 peptide agonist, SEQ ID NO: 22] | 0.52 | 9.17 -log M |
| TKFTLSLDVPTNIMNLLFNIAKAKNLCAQAAANAHLMAQI-NH2 [Cys-variant CRHR2 peptide agonist, SEQ ID NO: 28] | 0.16 | 9.36 -log M |
| TKFTLSLDVPTNIMNLLFNIAKAKNLRAQCAANAHLMAQI-NH2 [Cys-variant CRHR2 peptide agonist, SEQ ID NO: 31] | 1.61 | 8.02 -log M |
| TKFTLSLDVPTNCMNLLFNIAKAKNLRAQAAANAHLMAQI-NH2 [Cys-variant CRHR2 peptide agonist, SEQ ID NO: 14] | > 2 | ~7.34 -log M |
| TKFTLSLDVPTNIMNLLCNIAKAKNLRAQAAANAHLMAQI-NH2 [Cys-variant CRHR2 peptide agonist, SEQ ID NO: 19] | 1.67 | 8.01 -log M |
| TKFTLSLDVPTNIMNCLFNIAKAKNLRAQAAANAHLMAQI-NH2 [Cys-variant CRHR2 peptide agonist, SEQ ID NO: 17] | 0.02 | 9.5 -log M |
| TKFTLSLDVPTNIMNLLFNIAKAKNLRACAAANAHLMAQI-NH2 [Cys-variant CRHR2 peptide agonist, SEQ ID NO: 30] | 1.28 | 8.4 -log M |

Now from value to binder:

| Log DR against h-SCP, cAMP [log10 ratio] | pA50, cAMP | Binder |
| --- | --- | --- |
| 1.11 | 8.29 -log M | TKFTLSLDVPTNIMNLLFCIAKAKNLRAQAAANAHLMAQI (NES-PEG (about 20 kDa) on Cys 19; C-terminal amide) [Pegylated Cys-variant CRHR2 peptide agonist (NES linker, PEG about 20 kDa), SEQ ID NO: 73] |
| ~2.28 | ~7.33 -log M | TKFTLSLDVPTNIMNLLFNCAKAKNLRAQAAANAHLMAQI (NES-PEG (about 20 kDa) on Cys 20; C-terminal amide) [Pegylated Cys-variant CRHR2 peptide agonist (NES linker, PEG about 20 kDa), SEQ ID NO: 74] |
| 1.3 | 8.24 -log M | TKFTLSLDVPTNIMNLLFNICKAKNLRAQAAANAHLMAQI (NES-PEG (about 20 kDa) on Cys 21; C-terminal amide) [Pegylated Cys-variant CRHR2 peptide agonist (NES linker, PEG about 20 kDa), SEQ ID NO: 75] |
| ~1.52 | ~7.89 -log M | TKFTLSLDVPTNIMNLLFNIAKACNLRAQAAANAHLMAQI (NES-PEG (about 20 kDa) on Cys 24; C-terminal amide) [Pegylated Cys-variant CRHR2 peptide agonist (NES linker, PEG about 20 kDa), SEQ ID NO: 78] |
| 1.12 | 8.4 -log M | TKFTLSLDVPTNIMNLLFNIAKAKNLRCQAAANAHLMAQI (NES-PEG (about 20 kDa; MW20000) on Cys 28; C-terminal amide) [Pegylated Cys-variant CRHR2 peptide agonist (NES linker, PEG about 20 kDa), SEQ ID NO: 82] |
| 0.89 | 8.51 -log M | TKFTLSLDVPTNIMNLLFNIAKAKNLRAQACANAHLMAQI (NES-PEG (about 20 kDa) on Cys 31; C-terminal amide) [Pegylated Cys-variant CRHR2 peptide agonist (NES linker, PEG about 20 kDa), SEQ ID NO: 85] |
| 0.7 | 8.93 -log M | TKFTLSLDVPTNIMNLLFNIAKAKNLRAQAAANCHLMAQI-NH2 [Cys-variant CRHR2 peptide agonist, SEQ ID NO: 35] |
